Measured values from US20250223358A1.
“And” between values parts separate entries of the source, which are not always exact repeats. Equal entries are not always repeated.

Molecular target: human CD3 (human) (UniProt P07766)
Assay: cell-based or functional assay

Sequence of human CD3 (human) (P07766 23-207, chain 1 of 3): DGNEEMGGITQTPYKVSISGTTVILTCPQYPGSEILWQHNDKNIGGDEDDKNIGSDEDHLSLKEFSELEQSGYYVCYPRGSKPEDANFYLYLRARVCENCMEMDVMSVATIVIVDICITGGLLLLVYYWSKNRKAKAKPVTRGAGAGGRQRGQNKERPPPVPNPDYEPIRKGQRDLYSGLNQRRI
Sequence of human CD3 (human) (P04234 22-171, chain 2 of 3, further chain): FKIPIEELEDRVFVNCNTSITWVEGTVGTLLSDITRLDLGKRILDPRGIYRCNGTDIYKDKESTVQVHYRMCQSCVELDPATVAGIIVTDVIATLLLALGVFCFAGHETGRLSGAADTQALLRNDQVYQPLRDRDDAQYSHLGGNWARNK
Sequence of human CD3 (human) (P09693 23-182, chain 3 of 3, further chain): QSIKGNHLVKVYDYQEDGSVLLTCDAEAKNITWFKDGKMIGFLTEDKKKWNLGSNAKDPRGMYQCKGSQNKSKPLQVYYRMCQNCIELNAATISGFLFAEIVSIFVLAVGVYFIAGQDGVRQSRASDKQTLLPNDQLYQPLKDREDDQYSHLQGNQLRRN

Isotype control (antibody) was tested, and the RLU (Jurkat-NFAT-luciferase activation, antibody coated at 50 ug/mL), Plate 1 was 564 RLU and 582 RLU, the RLU (Jurkat-NFAT-luciferase activation, antibody coated at 50 ug/mL), Plate 2 was 386 RLU and 380 RLU and the RLU (Jurkat-NFAT-luciferase activation, antibody coated at 50 ug/mL), Plate 3 was 237 RLU and 231 RLU.
